{"source": "paper PMC9132103", "about": "(Science (New York, N.Y.), 2021)", "key": {"[1]": {"molecular_target": "T1, IL-10Rα ECD, from Expi-293 cells (for structural studies) (human, UniProt Q13651 20-235)", "T1 sequence (looked up)": "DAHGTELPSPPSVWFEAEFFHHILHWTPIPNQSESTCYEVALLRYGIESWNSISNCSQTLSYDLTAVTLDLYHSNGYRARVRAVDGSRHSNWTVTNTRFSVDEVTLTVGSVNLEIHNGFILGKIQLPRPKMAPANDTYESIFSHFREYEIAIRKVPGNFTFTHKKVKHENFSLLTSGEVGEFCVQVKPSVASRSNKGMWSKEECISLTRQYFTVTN", "experiment": "SEC"}, "cryo-EM structure": {"molecular_target": "the molecule itself", "experiment": "cryo-EM structure"}}, "data": [{"binder": "Affinity matured IL-10 (super-10, clone 5.1), soluble (ligand, UniProt P22301 19-178, looked up) SPGQGTQSENSCTHFPGYLPNMLRDLRDAFSRVKTFFQMKDQLDNLLLKESLLEDFKGYLGCQALSEMIQFYLEEVMPQAENQDPDIKAHVQSLGENLKDLRLWLRRCHRFLPCENKSKAVEQVKNAFNKLQEKGIYKAMSEFDIFINYIEAYMTMKIRN", "values": [{"measurement": "binding result", "setting": "[1]", "result": "binds"}, {"measurement": "binding result", "setting": "cryo-EM structure", "result": "binds"}]}]}
